{"source": "paper PMC3616908", "target": "Chk1 (UniProt P38147)", "assay": "biotinylated 35-mer peptide pull-down, anti-FLAG blot", "data": [{"substance": "Rad9 (from UniProt P14737) T143p peptide, λ phosphatase treated", "values": [{"measurement": "binding against the reference", "setting": "reference: T143p peptide, untreated or λ phosphatase plus inhibitors, sites T143", "value": "weaker"}]}, {"substance": "Rad9 (from UniProt P14737) T143p peptide", "values": [{"measurement": "binding against the reference", "setting": "reference: unphosphorylated peptide, sites T143", "value": "stronger"}]}, {"substance": "Rad9 (from UniProt P14737) T125pT143p peptide", "values": [{"measurement": "binding against the reference", "setting": "reference: T125p peptide, sites T143", "value": "stronger"}, {"measurement": "binding against the reference", "setting": "reference: T143p peptide, sites T125", "value": "weaker"}, {"measurement": "binding against the reference", "setting": "reference: unphosphorylated peptide, sites T125,T143", "value": "stronger"}]}, {"substance": "Rad9 (from UniProt P14737) T125p peptide", "values": [{"measurement": "binding against the reference", "setting": "reference: unphosphorylated peptide, sites T125", "value": "weaker"}]}]}
